Data reported in patent US12698507B2, “Methods and compositions for conferring and/or enhancing herbicide tolerance using protoporphyrinogen IX oxidase of various cyanobacteria or variant thereof” (FarmHannong Co., Ltd., priority 2019, dated 2026).
Substitutions are numbered along the chain they refer to. Names and notes keep the numbering of the source.

B1: CyPPO19 V165S + A167C + F360L: variant of CyPPO19 PPO protein (SEQ ID NO: 1) (protein)
chain: MSEVDVAIVGGGLSGLSLAWRLQQSAPQYSVVLLEASDRLGGNITTQTAEGFVWELGPNSFAPTPALLQLIAEVGLQSELIRGDRHLPRYIYWRGQLYPLQPTRPLALATSNLLSPWGKVRAALGALGFVPPYLGSGDESVNSFFRRHLGQEVAERLVAPFVSGSYCGDPQQLSAAAAFRRIAQLEKLGGGLIAGALHLRRQQAPKPKPPTSVQMRPGELGSFKEGLAALPRAIAQQLKAPIHLQTPVQEITPDPKGGYLLRSGEQTWRARSVVLATPAYQTAELVAPFQPAIARVLATIPYPTVACVVLAYPAGLGRSVRPGFGVLIPRSQGIRTLGTIWSSCLFPQRTPAGWQVFTSLIGGATDPDLASLSEEAIVQQVQQDLNRLLDLPAAKARLLGMKVWRRAIPQYMVGYPEQWQQVTHALSQTPGLFLCSNYAEGVALGDRVEHGNRTAAAVAAYLSGGQP
modifications: Synthetic_PPO of Thermosynechococcus elongatus PKUAC-SCTE542 (comprising GenBank No. CP032152.1)
B2: CyPPO19 V165S + L327T + F360T: variant of CyPPO19 PPO protein (SEQ ID NO: 1) (protein)
chain: B1 chain with C167A, L327T, L360T
modifications: Synthetic_PPO of Thermosynechococcus elongatus PKUAC-SCTE542 (comprising GenBank No. CP032152.1)
B3: CyPPO19 V165C + V305M + F360I: variant of CyPPO19 PPO protein (SEQ ID NO: 1) (protein)
chain: B1 chain with S165C, C167A, V305M, L360I
modifications: Synthetic_PPO of Thermosynechococcus elongatus PKUAC-SCTE542 (comprising GenBank No. CP032152.1)
B4: CyPPO19 V165C + A167L + F360T: variant of CyPPO19 PPO protein (SEQ ID NO: 1) (protein)
chain: B1 chain with S165C, C167L, L360T
modifications: Synthetic_PPO of Thermosynechococcus elongatus PKUAC-SCTE542 (comprising GenBank No. CP032152.1)
B5: CyPPO19 V165C + L327T + F360V: variant of CyPPO19 PPO protein (SEQ ID NO: 1) (protein)
chain: B1 chain with S165C, C167A, L327T, L360V
modifications: Synthetic_PPO of Thermosynechococcus elongatus PKUAC-SCTE542 (comprising GenBank No. CP032152.1)
B6: CyPPO19 V165C + L327T + F360I: variant of CyPPO19 PPO protein (SEQ ID NO: 1) (protein)
chain: B1 chain with S165C, C167A, L327T, L360I
modifications: Synthetic_PPO of Thermosynechococcus elongatus PKUAC-SCTE542 (comprising GenBank No. CP032152.1)
B7: CyPPO19 V165C + V305M + F360V: variant of CyPPO19 PPO protein (SEQ ID NO: 1) (protein)
chain: B1 chain with S165C, C167A, V305M, L360V
modifications: Synthetic_PPO of Thermosynechococcus elongatus PKUAC-SCTE542 (comprising GenBank No. CP032152.1)
B8: CyPPO19 V165S + V305L + F360L: variant of CyPPO19 PPO protein (SEQ ID NO: 1) (protein)
chain: B1 chain with C167A, V305L
modifications: Synthetic_PPO of Thermosynechococcus elongatus PKUAC-SCTE542 (comprising GenBank No. CP032152.1)

What follows are molecules tested on PPO-deficient BT3 E. coli (ΔPPO) (assay: PPO-inhibiting herbicide tolerance test of PPO variants in E. coli (growth on herbicide-containing LB agar)). Settings: CyPPO19 variants in BT3 (ΔPPO) E. coli; LB agar with 0 to 2,000 μM herbicide, 37° C., dark, 16-20 hours.
Assay type: cell-based
Description: To enhance the PPO-inhibiting herbicide resistance of CyPPO19 and CyPPO18, PPO variant genes of the above example 2 were constructed. They were transformed to BT3 (ΔPPO) strain which is deficient of PPO activity and cultured in LB media with PPO-inhibiting herbicide, thereby examining whether growth of transformed BT3 was not inhibited.
BT3 competent cells were transformed with the pET303-CyPPO19 (wild type), pET303-CyPPO18 (wild type) plasmids, and those with a mutation(s) constructed (refer to example 2) via heat shock method, and were cultured in LB agar media containing ampicillin.
Single colony transformed with each CyPPO gene was cultured in 3 mL of LB broth (LPSS) containing ampicillin for more than 12 hours, and then was subcultured in LB broth until absorbance (OD600) reached 0.5 to 1. Then, it was diluted with LB broth to OD600=0.5. Again, the diluted solution was serially diluted 4 times by a factor of one tenth.
The LB agar media (LB 25 g/L, Bacto agar 12 g/L) containing ampicillin (100 μg/mL) and 0 to 2,000 μM of various herbicides were prepared. Herbicide solution stocks were all prepared in DMSO.
Then, 10 μL of each diluted solution of E. coli was dropped on the plate and cultured at 37° C. under dark for 16-20 hours. PPO-inhibiting herbicide resistance was evaluated with the extent of E. coli growth containing each gene was observed.
The extent of herbicide resistance was evaluated by the relative growth of variants to that of wild type, and listed in Tables 9 and 10 and FIGS. 3 to 32.
In Tables 9 and 10, the tolerance level of variants showing equivalent resistance to wild type was presented as ‘−’, and was done as ‘+’ per each 10-fold resistance until ‘+++++’ as maximal resistance.
FIGS. 3 to 30 and FIGS. 31 and 32 show the transformed E. coli growth result of CyPPO19 WT and its variants and CyPPO18 WT and its variants, respectively. The concentrations of herbicides were written above the photographs of tolerance test. A 10-fold dilution series of spots were shown from OD600=0.5 of the leftmost spot to OD600=0.00005 of the rightmost one.

Molecule	tolerance level relative to wild type, Carfentrazone	tolerance level relative to wild type, Flumioxazin	tolerance level relative to wild type, Fomesafen	tolerance level relative to wild type, Oxyfluorfen	tolerance level relative to wild type, Saflufenacil	tolerance level relative to wild type, Sulfentrazone	tolerance level relative to wild type, Tiafenacil
B1	+ (‘+’ per each 10-fold resistance)	++++ (‘+’ per each 10-fold resistance)	+ (‘+’ per each 10-fold resistance)	+ (‘+’ per each 10-fold resistance)	+++ (‘+’ per each 10-fold resistance)	++ (‘+’ per each 10-fold resistance)	++++ (‘+’ per each 10-fold resistance)
B2	+ (‘+’ per each 10-fold resistance)	+++++ (until ‘+++++’ as maximal resistance)	+++ (‘+’ per each 10-fold resistance)	++ (‘+’ per each 10-fold resistance)	++++ (‘+’ per each 10-fold resistance)	+++ (‘+’ per each 10-fold resistance)	++++ (‘+’ per each 10-fold resistance)
B3	+ (‘+’ per each 10-fold resistance)	+++++ (until ‘+++++’ as maximal resistance)	++ (‘+’ per each 10-fold resistance)	++ (‘+’ per each 10-fold resistance)	+++++ (until ‘+++++’ as maximal resistance)	+++ (‘+’ per each 10-fold resistance)	+++++ (until ‘+++++’ as maximal resistance)
B4	+ (‘+’ per each 10-fold resistance)	+++ (‘+’ per each 10-fold resistance)	++ (‘+’ per each 10-fold resistance)	+ (‘+’ per each 10-fold resistance)	+++ (‘+’ per each 10-fold resistance)	+++ (‘+’ per each 10-fold resistance)	++++ (‘+’ per each 10-fold resistance)
B5	+ (‘+’ per each 10-fold resistance)	+++++ (until ‘+++++’ as maximal resistance)	+ (‘+’ per each 10-fold resistance)	+++ (‘+’ per each 10-fold resistance)	++++ (‘+’ per each 10-fold resistance)	+++++ (until ‘+++++’ as maximal resistance)	+++++ (until ‘+++++’ as maximal resistance)
B6	+ (‘+’ per each 10-fold resistance)	+++++ (until ‘+++++’ as maximal resistance)	++ (‘+’ per each 10-fold resistance)	+++ (‘+’ per each 10-fold resistance)	++++ (‘+’ per each 10-fold resistance)	+++++ (until ‘+++++’ as maximal resistance)	+++++ (until ‘+++++’ as maximal resistance)
B7	+ (‘+’ per each 10-fold resistance)	+++++ (until ‘+++++’ as maximal resistance)	++ (‘+’ per each 10-fold resistance)	+++ (‘+’ per each 10-fold resistance)	+++++ (until ‘+++++’ as maximal resistance)	++++ (‘+’ per each 10-fold resistance)	+++++ (until ‘+++++’ as maximal resistance)
B8	+ (‘+’ per each 10-fold resistance)	+++++ (until ‘+++++’ as maximal resistance)	+++ (‘+’ per each 10-fold resistance)	+++ (‘+’ per each 10-fold resistance)	+++++ (until ‘+++++’ as maximal resistance)	+++++ (until ‘+++++’ as maximal resistance)	+++++ (until ‘+++++’ as maximal resistance)
